Results as given in US12383631B2, “Immune antigen specific IL-18 immunocytokines and uses thereof” (Bright Peak Therapeutics AG, priority 2022, dated 2025).
pIC50: −log10 of the molar value.

Target: T1, human IL-18 binding protein isoform a (IL-18BPa) (Homo sapiens, UniProt O95998)
T1 sequence (O95998 31-194): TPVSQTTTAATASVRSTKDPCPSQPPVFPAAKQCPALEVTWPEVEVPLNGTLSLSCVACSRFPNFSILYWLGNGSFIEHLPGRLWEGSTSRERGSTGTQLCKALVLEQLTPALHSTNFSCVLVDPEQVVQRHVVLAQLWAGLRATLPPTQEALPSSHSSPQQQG
Assay: Cellular IL-18 Binding protein resistance assay in NK-92 cells (Example 13)
Assay type: cell-based
Conditions: NK92 cells, IL-18 analyte 1 nM final, IL-18BPa titrated, 1 ng/ml IL-12; read-out: IC50 IL-18BP-mediated inhibition of IFNγ secretion
Protocol: The NK cell line NK-92 derived from a patient with lymphoma (ATCC, Cat #CRL-2407) was cultured in aMEM medium supplemented with 20% FCS-Glutamax, 25 μM B-mercaptoEthanol, and 100 IU/ml of recombinant Human Interleukin-2 (TL-2). On the day of experiment, cells were harvested and washed with aMEM medium without IL-2. After counting, cells were seeded at 100 000 cells/well in a 384 well titer plate and incubated at 37° C./5% CO2. Sixteen 2-fold serial dilutions of Fc fused human IL-18 binding protein isoform a (IL-18BPa; R&D systems, Cat #119-BP) were prepared in aMEM medium-1 ng/ml IL-12 containing 2 nM of each IL-18 variants and were added to the NK-92 cells. Final IL-18 analytes concentration was 1 nM and final IL-18BPa concentrations ranged from to 566 nM down to 17 pM.
After 16-20 h incubation at 37° C./5% CO2, 5 μl of supernatant were carefully transferred to a 384 microwells OPTIplate (Perkin Elmer; Cat #6007270) and Interferon-gamma (IFNγ) levels measured using the Human IFNγ AlphaLISA Assay Kit (Perkin Elmer, Cat #AL217C). Briefly, 10 μl of 2.5× AlphaLISA Anti-IFNγ acceptor beads and biotinylated Antibody Anti-IFNγ mix were added to the 5 μl of NK-92 supernatants and incubated for 1 h at room temperature under shaking. Under subdued light, 2.5 μl of 2× streptavidin (SA) donor beads were pipetted in each well and incubated for 30 min at room temperature under shaking. AlphaLisa signal was then measured on an Enspire plate reader (Perkin Elmer) using 680 and 615 nm as excitation and emission wavelengths respectively. Half maximal inhibitory concentration (IC50) was calculated based on a variable slope, four parameter analysis using GraphPad PRISM software.

With “Composition B: immunocytokine: Atezolizumab/Tecentriq (anti-PD-L1) conjugated to IL-18 polypeptide SEQ ID NO: 30” the pIC50 was < 6.00.
